Reference: paper PMC10540216, “Activity Guided Azide-methyllysine Photo-trapping for Substrate Profiling of Lysine Demethylases” (Journal of the American Chemical Society, 2023)

B1: FIP1_HUMAN (protein, UniProt Q6UN15 1-594, looked up)
Pre-mRNA 3'-end-processing …: MSAGEVERLVSELSGGTGGDEEEEWLYGGPWDVHVHSDLAKDLDENEVERPEEENASANPPSGIEDETAENGVPKPKVTETEDDSDSDSDDDEDDVHVTIGDIKTGAPQYGSYGTAPVNLNIKTGGRVYGTTGTKVKGVDLDAPGSINGVPLLEVDLDSFEDKPWRKPGADLSDYFNYGFNEDTWKAYCEKQKRIRMGLEVIPVTSTTNKITAEDCTMEVTPGAEIQDGRFNLFKVQQGRTGNSEKETALPSTKAEFTSPPSLFKTGLPPSRNSTSSQSQTSTASRKANSSVGKWQDRYGRAESPDLRRLPGAIDVIGQTITISRVEGRRRANENSNIQVLSERSATEVDNNFSKPPPFFPPGAPPTHLPPPPFLPPPPTVSTAPPLIPPPGFPPPPGAPPPSLIPTIESGHSSGYDSRSARAFPYGNVAFPHLPGSAPSWPSLVDTSKQWDYYARREKDRDRERDRDRERDRDRDRERERTRERERERDHSPTPSVFNSDEERYRYREYAERGYERHRASREKEERHRERRHREKEETRHKSSRSNSRRRHESEEGDSHRRHKHKKSKRSKEGKEAGSEPAPEQESTEATPAE
B2: ZC3HE_HUMAN (protein, UniProt Q6PJT7 1-736, looked up)
Zinc finger CCCH …: MEIGTEISRKIRSAIKGKLQELGAYVDEELPDYIMVMVANKKSQDQMTEDLSLFLGNNTIRFTVWLHGVLDKLRSVTTEPSSLKSSDTNIFDSNVPSNKSNFSRGDERRHEAAVPPLAIPSARPEKRDSRVSTSSQESKTTNVRQTYDDGAATRLMSTVKPLREPAPSEDVIDIKPEPDDLIDEDLNFVQENPLSQKKPTVTLTYGSSRPSIEIYRPPASRNADSGVHLNRLQFQQQQNSIHAAKQLDMQSSWVYETGRLCEPEVLNSLEETYSPFFRNNSEKMSMEDENFRKRKLPVVSSVVKVKKFNHDGEEEEEDDDYGSRTGSISSSVSVPAKPERRPSLPPSKQANKNLILKAISEAQESVTKTTNYSTVPQKQTLPVAPRTRTSQEELLAEVVQGQSRTPRISPPIKEEETKGDSVEKNQGTQQRQLLSRLQIDPVMAETLQMSQDYYDMESMVHADTRSFILKKPKLSEEVVVAPNQESGMKTADSLRVLSGHLMQTRDLVQPDKPASPKFIVTLDGVPSPPGYMSDQEEDMCFEGMKPVNQTAASNKGLRGLLHPQQLHLLSRQLEDPNGSFSNAEMSELSVAQKPEKLLERCKYWPACKNGDECAYHHPISPCKAFPNCKFAEKCLFVHPNCKYDAKCTKPDCPFTHVSRRIPVLSPKPAVAPPAPPSSSQLCRYFPACKKMECPFYHPKHCRFNTQCTRPDCTFYHPTINVPPRHALKWIRPQTSE
B3: TIF1B_HUMAN (protein, UniProt Q13263 2-835, looked up)
Transcription intermediary …: AASAAAASAAAASAASGSPGPGEGSAGGEKRSTAPSAAASASASAAASSPAGGGAEALELLEHCGVCRERLRPEREPRLLPCLHSACSACLGPAAPAAANSSGDGGAAGDGTVVDCPVCKQQCFSKDIVENYFMRDSGSKAATDAQDANQCCTSCEDNAPATSYCVECSEPLCETCVEAHQRVKYTKDHTVRSTGPAKSRDGERTVYCNVHKHEPLVLFCESCDTLTCRDCQLNAHKDHQYQFLEDAVRNQRKLLASLVKRLGDKHATLQKSTKEVRSSIRQVSDVQKRVQVDVKMAILQIMKELNKRGRVLVNDAQKVTEGQQERLERQHWTMTKIQKHQEHILRFASWALESDNNTALLLSKKLIYFQLHRALKMIVDPVEPHGEMKFQWDLNAWTKSAEAFGKIVAERPGTNSTGPAPMAPPRAPGPLSKQGSGSSQPMEVQEGYGFGSGDDPYSSAEPHVSGVKRSRSGEGEVSGLMRKVPRVSLERLDLDLTADSQPPVFKVFPGSTTEDYNLIVIERGAAAAATGQPGTAPAGTPGAPPLAGMAIVKEEETEAAIGAPPTATEGPETKPVLMALAEGPGAEGPRLASPSGSTSSGLEVVAPEGTSAPGGGPGTLDDSATICRVCQKPGDLVMCNQCEFCFHLDCHLPALQDVPGEEWSCSLCHVLPDLKEEDGSLSLDGADSTGVVAKLSPANQRKCERVLLALFCHEPCRPLHQLATDSTFSLDQPGGTLDLTLIRARLQEKLSPPYSSPQEFAQDVGRMFKQFNKLTEDKADVQSIIGLQRFFETRMNEAFGDTKFSAVLVEPPPMSLPGAGLSSQELSGGPGDGP
B4: RNZ2_HUMAN (protein, UniProt Q9BQ52 17-826, looked up)
Zinc phosphodiesterase ELAC …: SQGRTISQAPARRERPRKDPLRHLRTREKRGPSGCSGGPNTVYLQVVAAGSRDSGAALYVFSEFNRYLFNCGEGVQRLMQEHKLKVARLDNIFLTRMHWSNVGGLSGMILTLKETGLPKCVLSGPPQLEKYLEAIKIFSGPLKGIELAVRPHSAPEYEDETMTVYQIPIHSEQRRGKHQPWQSPERPLSRLSPERSSDSESNENEPHLPHGVSQRRGVRDSSLVVAFICKLHLKRGNFLVLKAKEMGLPVGTAAIAPIIAAVKDGKSITHEGREILAEELCTPPDPGAAFVVVECPDESFIQPICENATFQRYQGKADAPVALVVHMAPASVLVDSRYQQWMERFGPDTQHLVLNENCASVHNLRSHKIQTQLNLIHPDIFPLLTSFRCKKEGPTLSVPMVQGECLLKYQLRPRREWQRDAIITCNPEEFIVEALQLPNFQQSVQEYRRSAQDGPAPAEKRSQYPEIIFLGTGSAIPMKIRNVSATLVNISPDTSLLLDCGEGTFGQLCRHYGDQVDRVLGTLAAVFVSHLHADHHTGLPSILLQRERALASLGKPLHPLLVVAPNQLKAWLQQYHNQCQEVLHHISMIPAKCLQEGAEISSPAVERLISSLLRTCDLEEFQTCLVRHCKHAFGCALVHTSGWKVVYSGDTMPCEALVRMGKDATLLIHEATLEDGLEEEAVEKTHSTTSQAISVGMRMNAEFIMLNHFSQRYAKVPLFSPNFSEKVGVAFDHMKVCFGDFPTMPKLIPPLKALFAGDIEEMEERREKRELRQVRAALLSRELAGGLEDGEPQQKRAHTEEPQAKKVRAQ
B5: TF3C4_HUMAN (protein, UniProt Q9UKN8 1-822, looked up)
General transcription factor …: MNTADQARVGPADDGPAPSGEEEGEGGGEAGGKEPAADAAPGPSAAFRLMVTRREPAVKLQYAVSGLEPLAWSEDHRVSVSTARSIAVLELICDVHNPGQDLVIHRTSVPAPLNSCLLKVGSKTEVAECKEKFAASKDPTVSQTFMLDRVFNPEGKALPPMRGFKYTSWSPMGCDANGRCLLAALTMDNRLTIQANLNRLQWVQLVDLTEIYGERLYETSYRLSKNEAPEGNLGDFAEFQRRHSMQTPVRMEWSGICTTQQVKHNNECRDVGSVLLAVLFENGNIAVWQFQLPFVGKESISSCNTIESGITSPSVLFWWEYEHNNRKMSGLIVGSAFGPIKILPVNLKAVKGYFTLRQPVILWKEMDQLPVHSIKCVPLYHPYQKCSCSLVVAARGSYVFWCLLLISKAGLNVHNSHVTGLHSLPIVSMTADKQNGTVYTCSSDGKVRQLIPIFTDVALKFEHQLIKLSDVFGSVRTHGIAVSPCGAYLAIITTEGMINGLHPVNKNYQVQFVTLKTFEEAAAQLLESSVQNLFKQVDLIDLVRWKILKDKHIPQFLQEALEKKIESSGVTYFWRFKLFLLRILYQSMQKTPSEALWKPTHEDSKILLVDSPGMGNADDEQQEEGTSSKQVVKQGLQERSKEGDVEEPTDDSLPTTGDAGGREPMEEKLLEIQGKIEAVEMHLTREHMKRVLGEVYLHTWITENTSIPTRGLCNFLMSDEEYDDRTARVLIGHISKKMNKQTFPEHCSLCKEILPFTDRKQAVCSNGHIWLRCFLTYQSCQSLIYRRCLLHDSIARHPAPEDPDWIKRLLQSPCPFCDSPVF
B6: CMTR1_HUMAN (protein, UniProt Q8N1G2 1-835, looked up)
Cap-specific mRNA …: MKRRTDPECTAPIKKQKKRVAELALSLSSTSDDEPPSSVSHGAKASTTSLSGSDSETEGKQHSSDSFDDAFKADSLVEGTSSRYSMYNSVSQKLMAKMGFREGEGLGKYSQGRKDIVEASSQKGRRGLGLTLRGFDQELNVDWRDEPEPSACEQVSWFPECTTEIPDTQEMSDWMVVGKRKMIIEDETEFCGEELLHSVLQCKSVFDVLDGEEMRRARTRANPYEMIRGVFFLNRAAMKMANMDFVFDRMFTNPRDSYGKPLVKDREAELLYFADVCAGPGGFSEYVLWRKKWHAKGFGMTLKGPNDFKLEDFYSASSELFEPYYGEGGIDGDGDITRPENISAFRNFVLDNTDRKGVHFLMADGGFSVEGQENLQEILSKQLLLCQFLMALSIVRTGGHFICKTFDLFTPFSVGLVYLLYCCFERVCLFKPITSRPANSERYVVCKGLKVGIDDVRDYLFAVNIKLNQLRNTDSDVNLVVPLEVIKGDHEFTDYMIRSNESHCSLQIKALAKIHAFVQDTTLSEPRQAEIRKECLRLWGIPDQARVAPSSSDPKSKFFELIQGTEIDIFSYKPTLLTSKTLEKIRPVFDYRCMVSGSEQKFLIGLGKSQIYTWDGRQSDRWIKLDLKTELPRDTLLSVEIVHELKGEGKAQRKISAIHILDVLVLNGTDVREQHFNQRIQLAEKFVKAVSKPSRPDMNPIRVKEVYRLEEMEKIFVRLEMKIIKGSSGTPKLSYTGRDDRHFVPMGLYIVRTVNEPWTMGFSKSFKKKFFYNKKTKDSTFDLPADSIAPFHICYYGRLFWEWGDGIRVHDSQKPQDQDKLSKEDVLSFIQMHRA
B7: PLOD3_HUMAN (protein, UniProt O60568 25-738, looked up)
Multifunctional procollagen …: SDRPRGRDPVNPEKLLVITVATAETEGYLRFLRSAEFFNYTVRTLGLGEEWRGGDVARTVGGGQKVRWLKKEMEKYADREDMIIMFVDSYDVILAGSPTELLKKFVQSGSRLLFSAESFCWPEWGLAEQYPEVGTGKRFLNSGGFIGFATTIHQIVRQWKYKDDDDDQLFYTRLYLDPGLREKLSLNLDHKSRIFQNLNGALDEVVLKFDRNRVRIRNVAYDTLPIVVHGNGPTKLQLNYLGNYVPNGWTPEGGCGFCNQDRRTLPGGQPPPRVFLAVFVEQPTPFLPRFLQRLLLLDYPPDRVTLFLHNNEVFHEPHIADSWPQLQDHFSAVKLVGPEEALSPGEARDMAMDLCRQDPECEFYFSLDADAVLTNLQTLRILIEENRKVIAPMLSRHGKLWSNFWGALSPDEYYARSEDYVELVQRKRVGVWNVPYISQAYVIRGDTLRMELPQRDVFSGSDTDPDMAFCKSFRDKGIFLHLSNQHEFGRLLATSRYDTEHLHPDLWQIFDNPVDWKEQYIHENYSRALEGEGIVEQPCPDVYWFPLLSEQMCDELVAEMEHYGQWSGGRHEDSRLAGGYENVPTVDIHMKQVGYEDQWLQLLRTYVGPMTESLFPGYHTKARAVMNFVVRYRPDEQPSLRPHHDSSTFTLNVALNHKGLDYEGGGCRFLRYDCVISSPRKGWALLHPGRLTHYHEGLPTTWGTRYIMVSFVDP
B8: FUBP2_HUMAN (protein, UniProt Q92945 2-711, looked up)
Far upstream element-binding …: SDYSTGGPPPGPPPPAGGGGGAGGAGGGPPPGPPGAGDRGGGGPGGGGPGGGSAGGPSQPPGGGGPGIRKDAFADAVQRARQIAAKIGGDAATTVNNSTPDFGFGGQKRQLEDGDQPESKKLASQGDSISSQLGPIHPPPRTSMTEEYRVPDGMVGLIIGRGGEQINKIQQDSGCKVQISPDSGGLPERSVSLTGAPESVQKAKMMLDDIVSRGRGGPPGQFHDNANGGQNGTVQEIMIPAGKAGLVIGKGGETIKQLQERAGVKMILIQDGSQNTNVDKPLRIIGDPYKVQQACEMVMDILRERDQGGFGDRNEYGSRIGGGIDVPVPRHSVGVVIGRSGEMIKKIQNDAGVRIQFKQDDGTGPEKIAHIMGPPDRCEHAARIINDLLQSLRSGPPGPPGGPGMPPGGRGRGRGQGNWGPPGGEMTFSIPTHKCGLVIGRGGENVKAINQQTGAFVEISRQLPPNGDPNFKLFIIRGSPQQIDHAKQLIEEKIEGPLCPVGPGPGGPGPAGPMGPFNPGPFNQGPPGAPPHAGGPPPHQYPPQGWGNTYPQWQPPAPHDPSKAAAAAADPNAAWAAYYSHYYQQPPGPVPGPAPAPAAPPAQGEPPQPPPTGQSDYTKAWEEYYKKIGQQPQQPGAPPQQDYTKAWEEYYKKQAQVATGGGPGAPPGSQPDYSAAWAEYYRQQAAYYGQTPGPGGPQPPPTQQGQQQAQ

Tested on: KDM4A-I71AzF
Test: CASI: photo-crosslinking with HEK293T cell extracts, StrepTactin enrichment and LC-MS/MS proteomics;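 also: lysates from HEK293T cells pretreated with a KDM4 inhibitor to raise proteome methylation, affinity-purified after ±UV, gel-resolved, trypsin-digested, with exclusive unique peptides per protein averaged per condition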
Type: binding, human
Conditions: sheet "Final results but with 0.01"

Molecule | Fold change (+UV/-UV)
B1 | 2
B2 | 4
B3 | 0.8
B4 | 0.5
B5 | 0.6667
B6 | 3
B7 | 0
B8 | 1.125
